Experimental findings from US20140315986, “APTAMERS THAT BIND TO IL-6 AND THEIR USE IN TREATING OR DIAGNOSING IL-6 MEDIATED CONDITIONS” (Otsuka Pharmaceutical Co., Ltd., published 2014) are described below.

The term IC50 denotes the concentration at which inhibition is half-maximal.

B1: 2574-49_338 (ssDNA)
DNA: GGGUUAUGUAGCGUGCGUAAGGCGGU
modifications: G-G1-G-Nap1-Nap2-A-Nap-G-Nap1-A-G-C-C3-C3-G1-U1-G1-C-G-Nap1-A-A-G-G-C-G1-G1-Nap1 (1=2'-OMe, 2=PS)
B2: 2574-49_326 (ssDNA)
DNA: GGGUUAUGUAGCGUGCGUAAGGCGGU
modifications: G-G1-G-Nap1-Nap-A-Nap-G-Nap1-A-G-C-C3-C3-G-U1-G1-C-G-Nap1-A-A-G-G-C-G1-G1-Nap1 (1=2'-OMe)
B3: 2573-20_780 (ssDNA)
DNA: GGCAGGUUUGGUAUUAACACGUUAAGUCGUGG
modifications: G-G-C1-A-G-G1-Bn-Bn-Pe2-G-G-Nap-A-Bn-Bn-A1-A-C-A1-C1-G-Bn-Bn2-A-A-G-Bn-C1-G-Bn2-G-G (1=2'-OMe, 2=PS)
B4: 2574-49_411 (ssDNA)
DNA: GGGUUAUGUAGCGUGCGUAAGGCGGU
modifications: G-G1-G-Nap1-Nap2-A2-Nap2-G-Nap1-A2-G1-C1-C3-C3-G1-U1-G1-C2-G2-Nap1-A2-A2-G2-G1-C2-G1-G1-Nap1 (1=2'-OMe, 2=PS)

The target in the series is IL-6 (mature human interleukin-6) (Homo sapiens, UniProt P05231 SEQ:1-184). The series is described as follows: cell_activity. The following applies: tags: untagged, R&D Systems; biotinylated with NHS-PEO4-biotin for SELEX.
Sequence of IL-6 (mature human interleukin-6) (P05231 29-212): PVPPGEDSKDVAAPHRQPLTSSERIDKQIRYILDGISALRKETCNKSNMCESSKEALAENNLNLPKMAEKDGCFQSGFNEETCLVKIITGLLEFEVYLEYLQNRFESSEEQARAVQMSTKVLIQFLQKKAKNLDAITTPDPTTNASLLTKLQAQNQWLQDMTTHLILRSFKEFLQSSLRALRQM
With B1, it took 0.02 nM to reach half-maximal inhibition (IC50).

For B2, the concentration for half-maximal inhibition (IC50) amounted to 0.11 nM.

Molecule B3 returned a concentration for half-maximal inhibition (IC50) of 0.087 nM.

The molecule B4 had an IC50 of 5.8 nM.
